Experiments:
EZH2 loop WT = EZH2 loop WT (UniProt Q15910 340-435); assay: EMSA; small but clear shift; EMSA: LightShift RNA EMSA kit protocol, 1-2 nM refolded RNA, 30 min room temperature, 4 or 6% native PAGE, 0.5x TBE; MST: Monolith NT.115, standard treated capillaries, 40% MST power; binding buffer, salt and pH not given in the material; details: protein: recombinant; tags: His tag implied (pET22b, HisTrap); label: 3' biotin (EMSA); Cy5 aminoallyl-UTP for labelled RNA; hairpin (predicted)
Thymosin beta 4 (Tβ4) = Thymosin beta 4 (Tβ4) (UniProt P62328 2-44, not fully specified); assay: EMSA; EMSA: LightShift RNA EMSA kit protocol, 1-2 nM refolded RNA, 30 min room temperature, 4 or 6% native PAGE, 0.5x TBE; MST: Monolith NT.115, standard treated capillaries, 40% MST power; binding buffer, salt and pH not given in the material; details: protein: recombinant; label: 3' biotin (EMSA); Cy5 aminoallyl-UTP for labelled RNA; hairpin (predicted)
Sequence of Thymosin beta 4 (Tβ4) (P62328 2-44): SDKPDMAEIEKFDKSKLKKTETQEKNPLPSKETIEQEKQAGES

Sequence of EZH2 loop WT (Q15910 340-435): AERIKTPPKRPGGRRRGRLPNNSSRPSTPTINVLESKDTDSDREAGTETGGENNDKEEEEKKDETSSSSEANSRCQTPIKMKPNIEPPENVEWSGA

Binder: AAGAAUGGCCUCGCGGAGGCAUGCGUCAUGCUAGCGUGCGGGGUACUCUU (structured_RNA) [R50]
- binding result (EZH2 loop WT): binds
- binding result (Thymosin beta 4 (Tβ4)): no binding

Reference: PMC12723722, “Phosphorylation event changes the RNA binding mode of EZH2 disordered segment”
